Experimental data as given in publication doi:10.1101/2021.12.28.474321 (bioRxiv, 2021).

B1: recombinant fructose-1,6-bisphosphate aldolase 3 from Chlamydomonas reinhardtii (CrFBA3) (enzyme, UniProt Q42690 28-377, looked up)
chain: GKYDEELIKTAGTVASKGRGILAMDESNATCGKRLDSIGVENTEENRRAYRELLVTAPGLGQYISGAILFEETLYQSTASGKKFVDVMKEQNIVPGIKVDKGLVPLSNTNGESWCMGLDGLDKRCAEYYKAGARFAKWRSVVSIPHGPSIIAARDCAYGLARYAAIAQNAGLVPIVEPEVLLDGEHDIDRCLEVQEAIWAETFKYMADNKVMFEGILLKPAMVTPGADCKNKAGPAKVAEYTLKMLRRRVPPAVPGIMFLSGGQSELESTLNLNAMNQSPNPWHVSFSYARALQNTVLKTWQGKPENVQAAQAALLKRAKANSDAQQGKYDATTEGKEAAQGMYEKGYVY

Legend:
[1] = biological target: FBA3 in soluble extracts of Chlamydomonas cultures (Chlamydomonas reinhardtii (endogenous in Chlamydomonas cultures)); assay: SEC
SEC = biological target: the molecule itself; assay: SEC

| Molecule | stoichiometry N [1] | stoichiometry N (SEC) |
| --- | --- | --- |
| FBA3 in soluble extracts of Chlamydomonas cultures (enzyme) | 4 |  |
| B1 |  | 4 |
